Results on 4 proteins are retold here after PMC2702006 (The Febs Journal, 2009).

The series “cross-linking” concerns the molecule itself. Kind of series: cross-linking.
The series “FRET or BRET” concerns the molecule itself. Kind of series: FRET or BRET. (In general: BRET reads energy transfer from a luciferase to a nearby fluorophore.)
Series [1] deals with the molecule itself. In words: cell-based or functional assay.

B1: human Hsp90β A116N (natural protein)
chain: not shown
For B1, the binding result in the series “cross-linking” is “binds”.

B2: human Hsp90β T110I (natural protein)
chain: not shown
In the case of B2, the binding result in the series “cross-linking” is “binds”.

B3: pyrene-labelled human Hsp90β E20C-C366A-A116N (natural protein)
chain: not shown
modifications: N-(1-pyrene)-maleimide label at position 20 (E20C)
Turning to B3, the binding result in the series “FRET or BRET” is recorded as “binds”.

B4: human Hsp90β L24R (natural protein)
chain: not shown
Turning to B4, in series [1], the “ATPase activity relative to wild-type Hsp90β” value is 6.2 % activity relative to wild-type Hsp90β.
